Experimental findings from PMC3246216 (2012) are described below.

Residue numbers refer to the chain shown, from its start.

Assay in all cases: ITC
A general note: ITC needs no label: the signal is the heat of the interaction.

Assay [1] deals with T1, Gcn4 101-134 (Saccharomyces cerevisiae, UniProt P03069).
T1 chain: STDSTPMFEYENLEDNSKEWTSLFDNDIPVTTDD

In assay [2] the target is T2, Gcn4 101-134 (Saccharomyces cerevisiae, UniProt P03069).
T2 chain: T1 chain with F24A

Assay [3] has as its target T3, Gcn4 101-134 (Saccharomyces cerevisiae, UniProt P03069).
T3 chain: T1 chain with W20A

B1: Gal11/Med15 158-238 (protein)
chain: QRRQLTPQQQQLVNQMKVAPIPKQLLQRIPNIPPNINTWQQVTALAQQKLLTPQDMEAAKEVYKIHQQLLFKARLQQQQAQ
For the molecule B1, the Kd in assay [1] came out at 10.1 µM; in assay [2] it was 65 µM; in assay [3], 56 µM.

B2: Gal11/Med15 158-238 (protein)
chain: B1 chain with M56A
In turn, B2 gave an equilibrium dissociation constant (Kd) in assay [1] of 76 µM.

The Kd is the concentration at which binding is half-saturated. A high value points to a looser complex.
